In the supplement of paper PMC12042874:
± gives the uncertainty stated by the source.

Test: amyloid nucleation score (Sup35N fusion, yeast selection) (log enrichment); library NNK2; higher = more nucleation; inactive = no reads after selection
How it was run: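 Sup35N was fused to peptides of 20 random codons and expressed in psi-negative yeast, which were induced with 100 μM copper sulfate for 24 hours and then grown on medium lacking adenine and uracil for 7 days at 30°C. Plasmid inserts from input and output were sequenced on Illumina. The nucleation score is the DiMSum log enrichment of output over input reads, centred on the mode score of non-aggregating sequences. Sequences with under 100 input reads were left out, and random libraries had three technical output replicates.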

| Substance | amyloid nucleation score |
| --- | --- |
| YPIIVFAVLCFEWETYWCSL | 0.015 ± 0.76 |
| CDSARFEGNVEAAR | -0.134 ± 0.34 |
| YFRCVASCVT | inactive |
| LVDHLGFMRMSMAGSWWVEG | 0.42 ± 0.8 |
| IDRVVSTRSSGFVCGEAFCG | -0.365 ± 0.63 |
| SLVKVGDKRYMFVSTQGKSL | 0.055 ± 0.42 |
| AKDEERISNVVGLDCDLGVL | 0.057 ± 0.42 |
| SFCSTGTEDTT | -0.213 ± 0.26 |
| LLLINFSYNALTKVRSEEYL | 3.86 ± 0.084 |
| IVLAYSKTPREVN | -0.086 ± 0.65 |
| SFANVSVMSIYRAVNPSWRP | 5.56 ± 0.072 |
| LSQGLIKRMYQHMCMKCVGF | -0.08 ± 0.35 |
| DDRIGSRVYVRVMNTKFFIK | 6.406 ± 0.045 |
| VFNWLNRGEESWDVVLVV | inactive |
| INQHEPFPPGVVLKVHKTL | -0.021 ± 0.34 |
| PTRFSLDHWFPSVHYYPRLY | -1.05 ± 1.1 |
| TGLVVDCLAYRDCSVKQDRA | 0.582 ± 0.34 |
| ITPVRTVRMLSRMFNMLSQL | 4.83 ± 0.056 |
| LIADSCFFIQGDHPMLSELY | 0.888 ± 0.32 |
| FNTSFNSVFPCSYRRFTGDI | 1.72 ± 0.097 |
| DFPRRWSWFITRESWGVWRT | 1.65 ± 0.34 |
| EVFGGFTRRRCVVLPRHRAW | 1.9 ± 0.27 |
| RIMISSIELDNCWYILGLSA | inactive |
| CLYYEPVSL | -0.263 ± 1.1 |
| YGRVITGCLCQCIGDDGCGD | 6.595 ± 0.039 |

| Substance | amyloid nucleation score |
| --- | --- |
| RENVVSGHDRNECAGLMSRG | 0.343 ± 0.27 |
| NRGSAPYYVTICYCNLC | 8.578 ± 0.035 |
| RTHWELRKNLLCPFVDKIY | -1.2 ± 0.78 |
| FLRLHE | inactive |
| TLPCFRVFYVTFQYSNHLLS | 8.55 ± 0.042 |
| TPDLSLLFIIRRCIFSGTPY | inactive |
| IRCCTYFAALSILLAPIKAG | 0.322 ± 0.27 |
| IDYQSGMPWVSMRMILKQ | 0.158 ± 0.46 |
| RYLCSRVVMSYTCARTPETG | 0.43 ± 0.35 |
| PISLRGLYCVKDLMDKPM | 0.113 ± 0.61 |
| LTTWNGCSDEC | -0.557 ± 1.1 |
| ATSTITNYGLPNRPCVSYMF | -0.043 ± 0.32 |
| NFKWVVAVMG | 0.789 ± 0.2 |
| MCRFVLSASCFMYIEHRYGR | 0.734 ± 0.81 |
| FACIPIQCIGISGRGSRDRR | 8.017 ± 0.044 |
| AISSEGELLAVDFWNSNLDP | -0.509 ± 0.23 |
| RRGDKRMVTDFTLLTTGGGR | 0.543 ± 0.33 |
| KQENMPDSAVVYCRRWGSDM | 0.057 ± 0.76 |
| RRVVVTWMSNIPRLLSRGVN | 0.171 ± 0.23 |
| MTCRMCGADCPLA | 0.539 ± 0.66 |
| HVRYYGTHSTVNDNYIRNVR | 0.425 ± 0.31 |
| CTTFSFADIEFVMKRTRAIL | inactive |
| MVNYDDMANGS | 0.465 ± 0.8 |
| RLGYILNFELNYLII | 0.856 ± 0.17 |
| MTVASCSTGCHD | 0.084 ± 0.54 |

| Substance | amyloid nucleation score |
| --- | --- |
| NLLRNRARWL | -1.08 ± 0.44 |
| RSGVESHRRKVPLVPMGVTV | 1.16 ± 0.36 |
| IWRAQTSWSSSMFTWAVGLR | 1.4 ± 0.33 |
| YMFRDQVWYMTYKDYGHGIR | -0.249 ± 1.1 |
| PMWRVFAFYRWVALMSLTRI | inactive |
| ELLHFSSISTS | inactive |
| QLQVSYYQRSGMFERFRLEW | 2.46 ± 0.18 |
| FSYRYIEDWCTNVGDLDVKL | -0.073 ± 0.26 |
| YSRKYSSAKVSMGDVCHNYM | -1.19 ± 0.76 |
| TIYVRQ | -1.4 ± 1.1 |
| SWCCGCFLLCVPRTVSSFVR | 0.167 ± 0.39 |
| PESYVGRSLSPTVLVMWKSD | 0.102 ± 1.1 |
| VNSFIDDSCLGMANPLPYWS | -1.03 ± 1 |
| NRAVGNEAYCRSGWSGFHSL | -0.459 ± 1.1 |
| VMIVFLDAFFGNLRANVVWY | -0.846 ± 0.49 |
| TCILMLCQECVCTF | 9.809 ± 0.051 |
| PRHSSSPALILWNYPNLTGI | -0.708 ± 0.37 |
| MERDCVRVDLFRVSRGGWML | 5.863 ± 0.052 |
| GYASTSKAKISAIRAIRP | 0.339 ± 0.31 |
| SVRKRKSNNAIPANAPNKI | 0.513 ± 0.35 |
| VLISSKYLIQSVDYILLNGP | -0.217 ± 0.29 |
| DVWWTYMYFKMSTVHAMSLF | -0.113 ± 1.1 |
| KVLRCYGDHFHHANSRTCLR | -1.08 ± 0.76 |
| NLDDYYDNILFTAMR | 0.201 ± 0.54 |
| STATHSWGCFSWNSCFHGRQ | 9.493 ± 0.05 |

| Substance | amyloid nucleation score |
| --- | --- |
| DSNTSSDILGLSYLYGRTRL | 0.168 ± 0.37 |
| WFLCWYSTPTLGCCKKEGSA | 0.056 ± 0.33 |
| RFWLESIWLDNL | 0.25 ± 0.42 |
| KGDRKKDCMPDLVYRKLSGV | 0.798 ± 0.67 |
| KDFFSVVSH | 0.573 ± 0.66 |
| TGFGLMHGLAGKCCLRFFIT | -0.116 ± 0.35 |
| RQQIFYSRDVQVNVGGN | inactive |
| YRSVVDA | 0.077 ± 0.54 |
| KIMYVSQECSGADLLGLYFF | -0.747 ± 0.79 |
| CINRVRG | -0.398 ± 0.76 |
| SREIWRLYDI | -0.124 ± 0.8 |
| AVVLLLRTAGVVIGHLVLRH | -0.016 ± 0.29 |
| LLMVFHTTKY | 6.665 ± 0.026 |
| NDVAKYACDKHSGNYGYSQG | 0.011 ± 1.1 |
| SNYVY | -0.161 ± 1.1 |
| WIQKPGLFASNGATATGGHV | 0.395 ± 0.56 |
| TIATPHCVYDSCGCSVVSSV | 0.176 ± 0.56 |
| LGTFKGKSEGPVV | 0.616 ± 0.64 |
| MPYALIR | -0.821 ± 0.35 |
| AAIIISLSYMI | 2.23 ± 0.075 |
| ASRWHLIAESLSLSAVLNSF | inactive |
| LEVTIMTRFVLMLMTLCFPS | -0.066 ± 0.36 |
| QTVQVRPVRYGSQSFRNFGW | -0.109 ± 0.49 |
| RIYFTPRYLDIDFYWTLNAV | -0.598 ± 0.64 |
| YIHVYVLMLGLNRQF | 4.74 ± 0.071 |

| Substance | amyloid nucleation score |
| --- | --- |
| VGSKWLNGSRGKRLELRIGR | 4.03 ± 0.12 |
| LIRVYDSDATTIDRLGVCRW | 0.726 ± 0.35 |
| LSGRCFFNVLLINCKRTERI | 2.1 ± 0.19 |
| QRHAVWGSSGDLTYELIGSL | inactive |
| LLINDKCPYERMAGQWLFGS | 0.268 ± 0.65 |
| LDFALNCNSRFSLTQDS | 2.83 ± 0.13 |
| VFAWRN | -0.347 ± 1.1 |
| RAFIINWALFGTRH | inactive |
| PKFLSFADSAFLICCRAIVF | 6 ± 0.08 |
| GVIKWKRQETLNHSWGSESE | 5.24 ± 0.072 |
| SFKGDDVVYC | -0.052 ± 0.27 |
| SRKKVMHYDFLVSGVVTHRW | inactive |
| LIFNYRVFLSFSW | -0.356 ± 1.1 |
| RCGVYRVTHSEAERSLSISL | 0.698 ± 0.57 |
| TPPTHWSFFMIWARCEKLGG | -1.01 ± 0.64 |
| MSMLPCGSVYFNTRNAYLWL | 6.678 ± 0.065 |
| CVKKEIMLFAFDALKSLLGR | -0.742 ± 1.1 |
| FGCIFYPMYLS | 5.32 ± 0.088 |
| GGCGLH | 0.261 ± 0.4 |
| VSMSRGL | inactive |
| YVVTYLRRRTLLAGSCISNY | 0.164 ± 0.8 |
| EYRVYYSRLRSLSTEEPMAS | -0.299 ± 0.79 |
| SEILWKTWNRFKPCFSRQYG | -0.675 ± 0.78 |
| SLVYL | 1.1 ± 0.13 |
| SFYSDYNQLIISMGHWSSMN | 4.35 ± 0.11 |
